The values that follow come from PMC9001736 (Scientific Reports, 2022).

Test [1] addresses T1, ZZ domain of HERC2 (HERC2ZZ, aa 2702–2755 with additional tryptophan at the C-terminus) (human, UniProt O95714 2702-2755).
T1 construct: E3 ubiquitin ligase HERC2, human, ZZ domain, aa 2702–2755 of the 4834 residue protein; additional tryptophan residue introduced at the C-terminus of HERC2ZZ to quantify the protein and for the tryptophan fluorescence assay; 15N-labelled in the NMR titrations where it is the observed protein; also called HERCZZ; WT HERC2ZZ; source: E. coli BL21 (DE3) RIL, purified (Ni-NTA, ULP1 cleavage; unlabeled …)
T1 chain: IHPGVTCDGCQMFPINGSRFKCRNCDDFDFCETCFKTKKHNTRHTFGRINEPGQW
In words: NMR titration; 1H,15N HSQC of 0.1–0.2 mM 15N-labelled HERC2 protein titrated with unlabeled protein or peptide; 298 K; 20 mM Tris (pH 6.8) or 20 mM PBS (pH 6.5), 150 mM NaCl, 2 mM DTT, 10% D2O. The conditions noted are these: both partners purified.

Test [2] deals with T2, HERC2_(ZZ-DOC) (aa 2702–2914), construct encompassing both ZZ and DOC domains (human, UniProt O95714 2702-2914).
T2 construct: E3 ubiquitin ligase HERC2, human, ZZ and DOC domains, aa 2702–2914; 15N-labelled for NMR; also called linked HERC2_(ZZ-DOC); source: E. coli BL21 (DE3) RIL, purified (Ni-NTA, ULP1 cleavage); not shown: His8x-SUMO, N-terminal, cleaved
Described as above. The conditions noted are these: both partners purified.

B1: histone H3_(1–12) peptide (aa 1–12 of H3) (peptide, UniProt P68431 2-13, looked up)
peptide: ARTKQTARKSTG
notes: histone H3, aa 1–12; also called H3 peptide
As for B1, the binding result in test [1] and in test [2] was “binds” each time.
